Data reported in patent US20210347873A1 (SHANGHAI PHARMAEXPLORER, published 2021).
Read-outs that look alike come from different tables or passages of the source.

Key:
[1] = biological target: extracellular domain of human BLyS protein (hBLyS-ECD), His-tagged, Ala134-Leu285 (human) (UniProt Q9Y275); assay: cell-based or functional assay
[2] = biological target: extracellular domain of human BLyS protein (hBLyS-ECD), His-tagged, Ala134-Leu285 (human) (UniProt Q9Y275); assay: cell-based or functional assay; remark: listed apart in the source
[3] = biological target: biotinylated hBLyS-ECD (human) (UniProt Q9Y275); assay: ELISA on captured biotinylated hBLyS-ECD; control antibody 13.3 nM
[4] = biological target: biotinylated hBLyS-ECD (human) (UniProt Q9Y275); assay: ELISA on captured biotinylated hBLyS-ECD; control antibody 2.67 nM
[5] = biological target: biotinylated hBLyS-ECD (human) (UniProt Q9Y275); assay: ELISA on captured biotinylated hBLyS-ECD; control antibody 66.7 nM
[6] = biological target: biotinylated hBLyS-ECD (human) (UniProt Q9Y275); assay: ELISA on captured biotinylated hBLyS-ECD; control antibody 13.3 nM; remark: listed apart in the source
[7] = biological target: biotinylated hBLyS-ECD (human) (UniProt Q9Y275); assay: ELISA on captured biotinylated hBLyS-ECD; control antibody 66.7 nM; remark: listed apart in the source
[8] = biological target: biotinylated hBLyS-ECD (human) (UniProt Q9Y275); assay: ELISA on captured biotinylated hBLyS-ECD; control antibody 0.107 nM
[9] = biological target: biotinylated hBLyS-ECD (human) (UniProt Q9Y275); assay: ELISA on captured biotinylated hBLyS-ECD; control antibody 0.534 nM
[10] = biological target: biotinylated hBLyS-ECD (human) (UniProt Q9Y275); assay: ELISA on captured biotinylated hBLyS-ECD; control antibody 0.107 nM; remark: listed apart in the source
[11] = biological target: biotinylated hBLyS-ECD (human) (UniProt Q9Y275); assay: ELISA on captured biotinylated hBLyS-ECD; control antibody 0.534 nM; remark: listed apart in the source
[12] = biological target: biotinylated hBLyS-ECD (human) (UniProt Q9Y275); assay: ELISA on captured biotinylated hBLyS-ECD; control antibody 0.0213 nM
[13] = biological target: biotinylated hBLyS-ECD (human) (UniProt Q9Y275); assay: ELISA on captured biotinylated hBLyS-ECD; control antibody 0.00427 nM
[14] = biological target: biotinylated hBLyS-ECD (human) (UniProt Q9Y275); assay: as above; remark: listed apart in the source
[15] = biological target: biotinylated hBLyS-ECD (human) (UniProt Q9Y275); assay: ELISA on captured biotinylated hBLyS-ECD; control antibody 0 nM (background)
[16] = biological target: biotinylated hBLyS-ECD (human) (UniProt Q9Y275); assay: BAFF R-coated ELISA, biotinylated hBLyS-ECD bound in presence of control antibody 0 nM
[17] = biological target: biotinylated hBLyS-ECD (human) (UniProt Q9Y275); assay: BAFF R-coated ELISA, biotinylated hBLyS-ECD bound in presence of control antibody 4 nM
[18] = biological target: biotinylated hBLyS-ECD (human) (UniProt Q9Y275); assay: BAFF R-coated ELISA, biotinylated hBLyS-ECD bound in presence of control antibody 0 nM; remark: listed apart in the source
[19] = biological target: biotinylated hBLyS-ECD (human) (UniProt Q9Y275); assay: BAFF R-coated ELISA, biotinylated hBLyS-ECD bound in presence of control antibody 4 nM; remark: listed apart in the source
[20] = biological target: biotinylated hBLyS-ECD (human) (UniProt Q9Y275); assay: BAFF R-coated ELISA, biotinylated hBLyS-ECD bound in presence of control antibody 20 nM
[21] = biological target: biotinylated hBLyS-ECD (human) (UniProt Q9Y275); assay: as above; remark: listed apart in the source
[22] = biological target: biotinylated hBLyS-ECD (human) (UniProt Q9Y275); assay: BAFF R-coated ELISA, biotinylated hBLyS-ECD bound in presence of control antibody 0.8 nM
[23] = biological target: biotinylated hBLyS-ECD (human) (UniProt Q9Y275); assay: as above; remark: listed apart in the source
[24] = biological target: biotinylated hBLyS-ECD (human) (UniProt Q9Y275); assay: BAFF R-coated ELISA, biotinylated hBLyS-ECD bound in presence of control antibody 100 nM
[25] = biological target: biotinylated hBLyS-ECD (human) (UniProt Q9Y275); assay: BAFF R-coated ELISA, biotinylated hBLyS-ECD bound in presence of control antibody 0.16 nM
[26] = biological target: biotinylated hBLyS-ECD (human) (UniProt Q9Y275); assay: as above; remark: listed apart in the source
[27] = biological target: biotinylated hBLyS-ECD (human) (UniProt Q9Y275); assay: BAFF R-coated ELISA, biotinylated hBLyS-ECD bound in presence of control antibody 0.0064 nM
[28] = biological target: biotinylated hBLyS-ECD (human) (UniProt Q9Y275); assay: as above; remark: listed apart in the source
[29] = biological target: extracellular domain of human BLyS protein (hBLyS-ECD), His-tagged, Ala134-Leu285 (human, UniProt Q9Y275 134-285); assay: cell-based or functional assay
Sequence of extracellular domain of human BLyS protein (hBLyS-ECD), His-tagged, Ala134-Leu285 (Q9Y275 134-285): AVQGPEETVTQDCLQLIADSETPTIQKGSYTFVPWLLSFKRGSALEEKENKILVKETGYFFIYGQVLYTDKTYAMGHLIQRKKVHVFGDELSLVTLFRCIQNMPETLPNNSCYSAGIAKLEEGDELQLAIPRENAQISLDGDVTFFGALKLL

Sequence of biotinylated hBLyS-ECD (human) (Q9Y275 134-285): as above
Sequence of extracellular domain of human BLyS protein (hBLyS-ECD), His-tagged, Ala134-Leu285 (human) (Q9Y275 134-285): as above

hIgG Control (antibody)
Proportion of B lymphocytes in splenocytes (%), in vivo in mice [1]: 39.4%
Proportion of B lymphocytes in splenocytes (%), in vivo in mice [2]: 38.3%
OD450 nm [3]: 0.072 OD450 nm
OD450 nm [4]: 0.0652 OD450 nm
OD450 nm [5]: 0.144 OD450 nm
OD450 nm [6]: 0.103 OD450 nm
OD450 nm [7]: 0.14 OD450 nm
OD450 nm [8]: 0.0662 OD450 nm
OD450 nm [9]: 0.062 OD450 nm
OD450 nm [10]: 0.117 OD450 nm
OD450 nm [11]: 0.141 OD450 nm
OD450 nm [12]: 0.0699 OD450 nm
OD450 nm [13]: 0.0798 OD450 nm
OD450 nm [14]: 0.121 OD450 nm
OD450 nm [15]: 0.119 OD450 nm
OD450 nm [16]: 2.37 OD450 nm
OD450 nm [17]: 2.15 OD450 nm
OD450 nm [18]: 2 OD450 nm
OD450 nm [19]: 1.87 OD450 nm
OD450 nm [20]: 2.01 OD450 nm
OD450 nm [21]: 1.91 OD450 nm
OD450 nm [22]: 1.83 OD450 nm
OD450 nm [23]: 1.85 OD450 nm
OD450 nm [24]: 1.87 OD450 nm
OD450 nm [25]: 2.04 OD450 nm
OD450 nm [26]: 1.79 OD450 nm
OD450 nm [27]: 2.01 OD450 nm
OD450 nm [28]: 1.99 OD450 nm

B1: c97A3C2H4 (antibody, V domains shown)
VH: EVKLVESGGGLVQPGGSLKLSCAASGFTFSTYTMSWVRQTPEKRLEWVAYISYGGGSTSYPDTVKGRFTISRDNAKNTLYLQMSSLKSEDTAIYYCTRHVTVVENSMDYWGQGTSVTVSS
VL: DILLTQSPDILSVSPGERVSFSCRASQSIGTSIHWYQQRTNGSPRLLIKYVSESFSGTPSRFSGSGSGTAFTLTINSVESEDIADYYCQQTHSWPWTFGGGTKLEIK
notes: also called chimeric antibody c97A3C2H4
Proportion of B lymphocytes in splenocytes (%), in vivo in mice [29]: 24.1%
